Among the data in paper PMC9352680, “A comprehensive thermodynamic model for RNA binding by the Saccharomyces cerevisiae Pumilio protein PUF4” are Kd values, retold here.

Numbering of substitutions follows the chain as printed. Names and notes keep the numbering of the source.

T1: PUF4 RNA-binding domain (Saccharomyces cerevisiae, UniProt P25339 537-888)
T1 sequence: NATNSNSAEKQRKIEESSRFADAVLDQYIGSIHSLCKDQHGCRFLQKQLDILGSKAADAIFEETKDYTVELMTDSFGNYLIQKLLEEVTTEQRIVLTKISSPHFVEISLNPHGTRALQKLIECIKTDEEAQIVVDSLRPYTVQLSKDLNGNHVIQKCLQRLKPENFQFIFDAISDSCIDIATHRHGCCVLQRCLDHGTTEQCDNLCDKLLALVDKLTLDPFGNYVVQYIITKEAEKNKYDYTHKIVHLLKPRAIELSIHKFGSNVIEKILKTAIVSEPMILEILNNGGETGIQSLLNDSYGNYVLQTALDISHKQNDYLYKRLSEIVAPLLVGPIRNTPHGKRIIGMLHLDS

B1: Ie_S2_P5E.1_K5.1_C5.1_H5.1_A5.1_F5.1_[+8CTCTC]_T5.1 (ssRNA)
RNA: UUUGAUUAAUAUGAUAUCGUUCUUUCUUGUAUUAUCUCUCUAUUCUUUCUCGAUAUCAUAUUAAUCUUU
B2: Ie_S2_P5E.1_K5.1_C5.1_H5.1_A5.1_F5.1_[+9TCTCT]_T5.1 (ssRNA)
RNA: B1 RNA with C36U
B3: Ie_S2_P5E.1_K5.1_C5.1_H5.1_A5.1_F5.1_[+9CTCTC]_T5.1 (ssRNA)
RNA: B1 RNA with C36U, U37C, C38U, U39C, C40U, U41C
B4: Ie_S2_P5E.1_K5.1_C5.1_H5.1_A5.1_F5.1_[+9CCCTT]_T5.1 (ssRNA)
RNA: B1 RNA with C36U, U37C, U39C, C40U
B5: Ie_S2_P5E.1_K5.1_C5.1_H5.1_A5.1_F5.1_[+8CCCTT]_T5.1 (ssRNA)
RNA: B1 RNA with U37C, C40U
B6: Ie_S2_P5E.1_K5.1_C5.1_H5.1_A5.1_F5.1_[+10TTCCT]_T5.1 (ssRNA)
RNA: B1 RNA with C36U, U37A, C38U, U41C, A42U
B7: Ie_S2_P5E.1_K5.1_C5.1_H5.1_A5.1_F5.1_[+9CCTCT]_T5.1 (ssRNA)
RNA: B1 RNA with C36U, U37C
B8: Ie_S2_P5E.1_K5.1_C5.1_H5.1_A5.1_F5.1_[+10TCTCT]_T5.1 (ssRNA)
RNA: B1 RNA with C36U, U37A, C38U, U39C, C40U, U41C, A42U
B9: Ie_S2_P5E.1_K5.1_C5.1_H5.1_A5.1_F5.1_[+9TTCCT]_T5.1 (ssRNA)
RNA: B1 RNA with C36U, C38U, U39C
B10: Ie_S2_P5E.1_K5.1_C5.1_H5.1_A5.1_F5.1_[+10T]_T5.1 (ssRNA)
RNA: UUUGAUUAAUAUGAUAUCGUUCUUUCUUGUAUUAUUAUUUCUUUCUCGAUAUCAUAUUAAUCUUU
B11: Ib_S2_P3E.1_K3.1_C3.1_H3.1_[G2C]_[A4T]_A3.1_F3.1_T3.1 (ssRNA)
RNA: UUUGAUUAAUAUGAUAUCGUUCUUUCUUCUUUAUAUUCUUUCUCGAUAUCAUAUUAAUCUUU
B12: Ib_S2_P3E.1_K3.1_C3.1_H3.1_[T3C]_[A4G]_A3.1_F3.1_T3.1 (ssRNA)
RNA: B11 RNA with C29G, U30C, U31G
B13: Ib_S2_P3E.1_K3.1_C3.1_H3.1_[G2A]_[A4T]_A3.1_F3.1_T3.1 (ssRNA)
RNA: B11 RNA with C29A
B14: Ib_S2_P3E.1_K3.1_C3.1_H3.1_[G2T]_[A4T]_A3.1_F3.1_T3.1 (ssRNA)
RNA: B11 RNA with C29U
B15: Ie_S2_P5E.1_K5.1_C5.1_H5.1_A5.1_F5.1_[+9CCT]_T5.1 (ssRNA)
RNA: UUUGAUUAAUAUGAUAUCGUUCUUUCUUGUAUUAUUCCUAUUCUUUCUCGAUAUCAUAUUAAUCUUU
B16: Ie_S2_P5E.1_K5.1_C5.1_H5.1_A5.1_F5.1_[+9CTC]_T5.1 (ssRNA)
RNA: B15 RNA with C38U, U39C
B17: Ie_S2_P5E.1_K5.1_C5.1_H5.1_A5.1_F5.1_[+10TTT]_T5.1 (ssRNA)
RNA: B15 RNA with C37A, C38U, A40U
B18: Ie_S2_P5E.1_K5.1_C5.1_H5.1_A5.1_F5.1_[+10TCT]_T5.1 (ssRNA)
RNA: B15 RNA with C37A, C38U, U39C, A40U
B19: Ie_S2_P5E.1_K5.1_C5.1_H5.1_A5.1_F5.1_[+8TTC]_T5.1 (ssRNA)
RNA: B15 RNA with C37U
B20: Ie_S2_P5E.1_K5.1_C5.1_H5.1_A5.1_F5.1_[+9TCC]_T5.1 (ssRNA)
RNA: B15 RNA with C37U, U39C
B21: Ie_S2_P5E.1_K5.1_C5.1_H5.1_A5.1_F5.1_[+10TTC]_T5.1 (ssRNA)
RNA: B15 RNA with C37A, C38U, A40C
B22: Ie_S2_P5E.1_K5.1_C5.1_H5.1_A5.1_F5.1_[+9TTC]_T5.1 (ssRNA)
RNA: B15 RNA with C37U, C38U, U39C
B23: Ie_S2_P5E.1_K5.1_C5.1_H5.1_A5.1_F5.1_[+10TT]_T5.1 (ssRNA)
RNA: UUUGAUUAAUAUGAUAUCGUUCUUUCUUGUAUUAUUAUUUUCUUUCUCGAUAUCAUAUUAAUCUUU
B24: Ie_S2_P5E.1_K5.1_C5.1_H5.1_A5.1_F5.1_[+8CCTC]_T5.1 (ssRNA)
RNA: UUUGAUUAAUAUGAUAUCGUUCUUUCUUGUAUUAUCCUCUAUUCUUUCUCGAUAUCAUAUUAAUCUUU
B25: Ie_S2_P5E.1_K5.1_C5.1_H5.1_A5.1_F5.1_[+8CCCT]_T5.1 (ssRNA)
RNA: B24 RNA with U38C, C39U
B26: Ie_S2_P5E.1_K5.1_C5.1_H5.1_A5.1_F5.1_[+9TTCC]_T5.1 (ssRNA)
RNA: B24 RNA with C36U, C37U, U40C
B27: Ie_S2_P5E.1_K5.1_C5.1_H5.1_A5.1_F5.1_[+9CCTC]_T5.1 (ssRNA)
RNA: B24 RNA with C36U, U38C, C39U, U40C
B28: Ie_S2_P5E.1_K5.1_C5.1_H5.1_A5.1_F5.1_[+8TTCC]_T5.1 (ssRNA)
RNA: B24 RNA with C36U, C37U, U38C
B29: Ie_S2_P5E.1_K5.1_C5.1_H5.1_A5.1_F5.1_[+10TTCC]_T5.1 (ssRNA)
RNA: B24 RNA with C36U, C37A, C39U, U40C, A41C
B30: Ie_S2_P5E.1_K5.1_C5.1_H5.1_A5.1_F5.1_[+9TCTC]_T5.1 (ssRNA)
RNA: B24 RNA with C36U, C37U, U38C, C39U, U40C
B31: Ie_S2_P5E.1_K5.1_C5.1_H5.1_A5.1_F5.1_[+9CCCT]_T5.1 (ssRNA)
RNA: B24 RNA with C36U, U38C

The target in the data set is T1, PUF4 RNA-binding domain. In words: Mg; RNA-MaP; 20 mM Na-HEPES pH 7.4, 30 mM KOAc, 0.75 mM MgCl2, 0.1% Tween-20, 5% glycerol, 0.1 mg/mL BSA, 2 mM DTT; 25 C; 0.0125-409.6 nM protein. To be noted: tags: N-His6-TEV cleaved; C-SNAP kept, Cy3B-labelled; label: tethered on chip by stalled RNA polymerase.
What is called Kd is a measure of binding affinity in units of concentration. The low end stands for higher affinity, the high end for lower affinity. B1 showed an equilibrium dissociation constant (Kd) of 13.1 nM.
On to B2, for which the Kd was found to be 6.98 nM.
The molecule B3 yielded a Kd of 13.7 nM.
Regarding B4, the Kd worked out at 12.8 nM.
B5 gave a dissociation constant Kd of 15.2 nM.
Take B6: the Kd was 1.84 nM.
Next, B7: 7.72 nM; B8: 2.21 nM; B9: 7.79 nM.
As for B10, the figure is 1.76 nM; as for ACAAACUGCCUCUAUAUUAACAAAC (ssRNA) [Ie_S3_P4E.1_K4.1_C4.1_H4.1_[+2CCTC]_A4.1_F4.1_T4.1], over 2300 nM; as for ACAAACUGUAUUCCUAUUAACAAAC (ssRNA) [Ie_S3_P4E.1_K4.1_C4.1_H4.1_[+4TTCC]_A4.1_F4.1_T4.1], 9.85 nM.
Turning to ACAAACCUUGCCUCUUAUAUAUAACAAAC (ssRNA) [Ie_S3_P3E.2_K3.1_C3.2_H3.1_[+2CCTCT]_A3.1_F3.1_T3.2], the affinity, expressed as Kd, was 1010 nM.
Next, ACAAACUGCUCUAUAUUAACAAAC (ssRNA) [Ie_S3_P4E.1_K4.1_C4.1_H4.1_[+2CTC]_A4.1_F4.1_T4.1]: 1270 nM.
Consider B11, for which the dissociation constant (Kd) is 1670 nM.
Consider B12, for which binding was characterised by a dissociation constant (Kd) of 1100 nM.
Regarding B13, the Kd was over 2300 nM.
As for B14, the figure is over 2300 nM.
Next, B15: 7.29 nM; B16: 22.6 nM.
As for B17, the figure is 1.17 nM; as for B18, 3.7 nM.
Molecule B19 displayed a dissociation constant (Kd) of 7.64 nM.
B20: the Kd was 15.6 nM.
As for B21, the figure is 2.01 nM; as for B22, 14.1 nM.
ACAAACCUUCCUCGUAUAUAUAACAAAC (ssRNA) [Ie_S3_P3E.2_K3.1_C3.2_H3.1_[+1CCTC]_A3.1_F3.1_T3.2] showed a dissociation constant (Kd) of 565 nM.
ACAAACUGCCCUAUAUUAACAAAC (ssRNA) [Ie_S3_P4E.1_K4.1_C4.1_H4.1_[+2CCC]_A4.1_F4.1_T4.1] came in with a Kd of 1560 nM.
For the molecule ACAAACCUUGCCCUUUAUAUAUAACAAAC (ssRNA) [Ie_S3_P3E.2_K3.1_C3.2_H3.1_[+2CCCTT]_A3.1_F3.1_T3.2], binding was put at a Kd of 1020 nM.
As for B23, the figure is 2.29 nM; as for ACAAACUGUCCCUAUAUUAACAAAC (ssRNA) [Ie_S3_P4E.1_K4.1_C4.1_H4.1_[+3CCCT]_A4.1_F4.1_T4.1], 602 nM.
Consider ACAAACUGUAUCCCUAUUAACAAAC (ssRNA) [Ie_S3_P5E.1_K5.1_C5.1_H5.1_A5.1_[+5CCC]_F5.1_T5.1], for which binding was put at a Kd of 24.3 nM.
Take ACAAACUGCUUAUAUUAACAAAC (ssRNA) [Ie_S3_P4E.1_K4.1_C4.1_H4.1_[+2CT]_A4.1_F4.1_T4.1]: the dissociation constant (Kd) amounted to 1800 nM.
Next, ACAAACCUUUUCCGUAUAUAUAACAAAC (ssRNA) [Ie_S3_P3E.2_K3.1_C3.2_H3.1_[+1TTCC]_A3.1_F3.1_T3.2]: 1200 nM; B24: 15.8 nM; B25: 11.6 nM.
With B26, the Kd stood at 13.2 nM.
In turn, B27 came in with a dissociation constant (Kd) of 16.4 nM.
In turn, B28 gave a Kd of 9.45 nM.
With B29, the Kd amounted to 2.02 nM.
In turn, B30 came in with a dissociation constant (Kd) of 10.2 nM.
Molecule B31 came in with a dissociation constant Kd of 8.29 nM.
In turn, ACAAACUGUCCUAUAUUAACAAAC (ssRNA) [Ie_S3_P4E.1_K4.1_C4.1_H4.1_[+3CCT]_A4.1_F4.1_T4.1] yielded an equilibrium dissociation constant (Kd) of 59.9 nM.
Turning to ACAAACUGUCCUCAUAUUAACAAAC (ssRNA) [Ie_S3_P4E.1_K4.1_C4.1_H4.1_[+3CCTC]_A4.1_F4.1_T4.1], the equilibrium dissociation constant (Kd) was determined as 650 nM.
On to ACAAACUGCUUUAUAUUAACAAAC (ssRNA) [Ie_S3_P4E.1_K4.1_C4.1_H4.1_[+2CTT]_A4.1_F4.1_T4.1], for which the Kd was determined as 896 nM.
With ACAAACUGUACCUCUAUUAACAAAC (ssRNA) [Ie_S3_P4E.1_K4.1_C4.1_H4.1_[+4CCTC]_A4.1_F4.1_T4.1], binding was characterised by a dissociation constant (Kd) of 14.7 nM.
ACAAACCUUUCGUAUAUAUAACAAAC (ssRNA) [Ie_S3_P3E.2_K3.1_C3.2_H3.1_[+1TC]_A3.1_F3.1_T3.2]: the equilibrium dissociation constant (Kd) was determined as 927 nM.
Regarding ACAAACUCUCUCGUAUAUUAACAAAC (ssRNA) [Ie_S3_P4E.1_K4.1_C4.1_H4.1_[+1CTCTC]_A4.1_F4.1_T4.1], the affinity, expressed as Kd, was 69.5 nM.
Turning to ACAAACCUUGCCUUAUAUAUAACAAAC (ssRNA) [Ie_S3_P3E.2_K3.1_C3.2_H3.1_[+2CCT]_A3.1_F3.1_T3.2], binding was put at a Kd of 1170 nM.
ACAAACUGCUAUAUUAACAAAC (ssRNA) [Ie_S3_P4E.1_K4.1_C4.1_H4.1_[+2C]_A4.1_F4.1_T4.1] had a Kd of 672 nM.
